Source: publication PMC4417174

Test system: PU.1ΔN167 (ETS domain) (murine)
Assay: DMS footprinting
Conditions: saturating protein; Footprinting: 10 mM Tris-HCl pH 7.4, 150 mM NaCl, 0.1 mM EDTA, 0.5 g/l BSA, 0.1 g/l salmon sperm DNA; EMSA: 12% PAGE, 1x TBE, 0.1-10 uM protein; DLS: PBS, 25 C.

In the case of “PU.1 high-affinity site, 206-bp footprinting fragment”, the binding signal (% protection of core guanines vs unbound) is reported as 90.
